Data taken from paper PMC3531455, “PTH1 Receptor Is Involved in Mediating Cellular Response to Long-Chain Polyunsaturated Fatty Acids” (PLoS ONE, 2012).
Blank lines part the entries; values can stand above or below the compound they belong to.

Key:
[1] = biological target: Parathyroid hormone type 1 receptor (PTH1R) (human) (UniProt Q03431)
[2] = biological target: Parathyroid hormone type 1 receptor (PTH1R) (human) (UniProt Q03431); assay: fluorescence polarisation; fluorescence anisotropy, competitive displacement of 2 nM PTH(1–34)^TMR from PTH1R membrane fractions of transfected HEK293 cells; DPBS, 4 hours, room temperature; 96-well plates, 150 µL; IC50 converted to Ki by the Cheng-Prusoff equation
[3] = biological target: T1, PTH1 receptor (PTH1R) (Homo sapiens, UniProt Q03431); assay: competitive fluorescence anisotropy displacement of PTH([…])TMR; supported by PTH-CC FRET conformational sensor; type: binding
T1 construct: PTH1R in membrane fractions of transfected HEK293 cells
T1 sequence (Q03431 27-593): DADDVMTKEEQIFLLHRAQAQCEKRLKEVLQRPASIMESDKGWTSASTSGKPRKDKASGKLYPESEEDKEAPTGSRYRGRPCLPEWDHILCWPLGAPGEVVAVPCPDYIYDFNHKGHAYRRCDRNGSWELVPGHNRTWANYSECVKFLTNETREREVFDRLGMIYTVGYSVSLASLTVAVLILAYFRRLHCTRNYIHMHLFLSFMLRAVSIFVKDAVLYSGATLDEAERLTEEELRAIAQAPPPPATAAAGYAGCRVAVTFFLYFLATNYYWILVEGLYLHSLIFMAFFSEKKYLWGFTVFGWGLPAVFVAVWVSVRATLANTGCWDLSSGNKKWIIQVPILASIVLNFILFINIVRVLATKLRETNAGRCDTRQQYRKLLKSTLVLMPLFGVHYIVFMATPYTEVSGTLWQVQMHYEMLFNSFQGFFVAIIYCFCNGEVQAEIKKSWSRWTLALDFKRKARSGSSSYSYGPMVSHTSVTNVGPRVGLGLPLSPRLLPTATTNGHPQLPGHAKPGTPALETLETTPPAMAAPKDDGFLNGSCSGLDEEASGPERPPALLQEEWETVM

[4] = biological target: T1, PTH1 receptor (PTH1R); assay: competitive fluorescence anisotropy displacement of PTH([…])TMR; type: binding

ERK1/2 phosphorylation (Emax = pERKmax/ERK, western blot) in HEK293 cells transfected with PTH1R, PTH(1–34) dose response, 5 minutes; no significant increase in untransfected HEK293 cells [1]: 3.5 pERK/ERK | IC50 [2]: 3.43 nM | Ki [2]: 2.4 nM
Compound: Human PTH(1–34) (peptide)

Ki [2]: 4.66 nM
Compound: Human [Lys-13(Nε-5-carboxy-TMR)]PTH(1–34)NH2 (peptide)

Ki [3]: 0.69 ± 0.25 nM
Compound: CC/C=C\C/C=C\C/C=C\C/C=C\C/C=C\CCCC(=O)O [EPA, eicosapentaenoic acid]

Ki [4]: 0.54 ± 0.16 nM
Compound: CC/C=C\C/C=C\C/C=C\C/C=C\C/C=C\C/C=C\CCC(=O)O [DHA, docosahexaenoic acid]
